This passage reports localisation_or_trafficking and expression_or_secretion results from publication PMC8639819.

Data set [1] can be described thus: immunofluorescence confocal microscopy. To be noted: glycan lost; control: E14 cells.
A further data set can be described thus: Western blot. To be noted: glycan lost; control: E14 cells. In general terms: In western blotting, separated proteins are transferred to a membrane and probed.
A short description of data set [2]: Western blot, stable 2TS22C cells. The conditions noted are these: glycan lost; control: WT FLAG-Sox2.
Data set [3] is described as follows: 3D z-stack immunofluorescence, 2TS22C cells. To be noted: glycan lost; control: WT FLAG-Sox2.

Sequence of Sox2: E14-Sox2TA/WT (chain, as listed by the source): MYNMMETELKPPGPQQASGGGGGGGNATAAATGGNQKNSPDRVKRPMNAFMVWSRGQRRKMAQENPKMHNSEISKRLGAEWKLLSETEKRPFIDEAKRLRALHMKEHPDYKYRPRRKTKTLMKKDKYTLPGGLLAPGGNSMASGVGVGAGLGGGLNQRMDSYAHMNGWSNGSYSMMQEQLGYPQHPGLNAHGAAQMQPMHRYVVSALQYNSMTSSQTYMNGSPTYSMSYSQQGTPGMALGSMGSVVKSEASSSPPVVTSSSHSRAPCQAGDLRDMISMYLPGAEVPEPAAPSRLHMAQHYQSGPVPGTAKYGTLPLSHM
Sequence of Sox2: T258A (chain, as listed by the source T258A): as the sequence (chain, as listed by the source) above
Sequence of Sox2: S248A (chain, as listed by the source S248A): as the sequence (chain, as listed by the source) above
Sequence of Sox2: S248A/T258A (chain, as listed by the source S248A T258A): as the sequence (chain, as listed by the source) above

Take Sox2: E14-Sox2TA/WT: in data set [1], the localisation_or_trafficking result was “no change”. In addition, the expression_or_secretion entry in the data set “Western blot” is reported as “no change”.

In the case of Sox2: S248A, in data set [2], the expression_or_secretion result is listed as “no change”.

Sox2: S248A/T258A: in data set [2], the expression_or_secretion result is given as “no change”.

Take Sox2: T258A: the localisation_or_trafficking entry in data set [3] is “no change”. In data set [2], the expression_or_secretion result is listed as “no change”.
